Reference: the supplement of paper PMC9170038

Tested on: MS2 coat protein
Experiment: apparent KD of MS2 coat protein; designed switch direction (-1 OFF switch, 1 ON switch): -1; higher = weaker reporter binding
In short: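 For each design, the apparent KD is the median over clusters of curves fitted to normalised cluster fluorescence. Clusters held RNA switches with common flanks, transcribed on Illumina chips by stalled E. coli RNA polymerase. These were titrated with SNAP-549-labelled MS2 coat protein, doubling from 0.7 or 1.5 nM to 3 µM, without input, with 200 uM small-molecule ligand, or with an oligonucleotide input.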

[1] = input ligand: microRNA oligo, concentration not stated
[2] = Eterna round: R95, input ligand: microRNA oligo, concentration not stated
[3] = Eterna round: R95, input ligand: FMN 200 uM
[4] = Eterna round: R95, input ligand: none

| Sequence | apparent KD of MS2 coat protein (input ligand: FMN 200 uM) | apparent KD of MS2 coat protein (input ligand: none) | other results |
| --- | --- | --- | --- |
| ACAACCAGAGGAUAUGCGCAUAGAUCAGACUUUGUUUCUGAACAUGAGGAUCACCCAUGUAGAAGGCUGUAACC [Ex2 #79] (Eterna round: R97, puzzle: Exclusion 2) | 27.7 nM | 28.7 nM |  |
| GGUACUCAAAGAGUACCAAUACGAACAUGAGGAUCACCCAUGUAGGAUAUGCUACUCAAAGAGUAGCAGAAGGACGUGAACCCU [Far Half Aptamer] (Eterna round: R96, puzzle: Exclusion NG 3) | 164 nM | 40.5 nM | apparent KD of MS2 coat protein [1]: 26.5 nM |
| AUGACCUAAGGAUAUACAUGAGGAUCACCCAUGUCAGGUAAGCCUGUCCGCGGUGCAUGUAGAAGGUAGCUACC [EX3 A.27] (Eterna round: R97, puzzle: Exclusion 3) | 122 nM | 116 nM |  |
| ACAUGAGGAUCACCCAUGUGACCACAAUGGCUGAUAUAGAAACAGGAUAUUCGUGAAUAUCUAACGAAGAAGGGUUAUGACUGG [Deportation 65 - Jieux - Exclusion NG 3] (Eterna round: R96, puzzle: Exclusion NG 3) |  |  | apparent KD of MS2 coat protein [1]: 61 nM |
| GCACGGAUGGUAGGAUAUCAUUGCGAUUAGCUAUGAGAAGGACCACAUGAGGAUCACCCAUGUCCUCUAAUUAGCCUUCCGUGC [Eli exng1 - 016] (Eterna round: R96, puzzle: Exclusion NG 1) |  |  | apparent KD of MS2 coat protein [1]: 156 nM |
| CCUUUGUCAGGAUAUCGUGCAUACAACGAAAGUUCUAUGUGCGAGAAGGGACAUGAGGAUCACCCAUGUUACGG [Omei Ex4 A3] (Eterna round: R97, puzzle: Exclusion 4) | 172 nM | 368 nM |  |
| GUUAAGGUAGGAUAUACGAUAAUAUAGGGUAGAUAUAGAACACAUGAGGAUCACCCAUGUAGAAGGACCAAUUG [Mat - Exclusion 2 - Mod of my Tesla design - D54] (puzzle: Exclusion 2) |  |  | apparent KD of MS2 coat protein [2]: 28.6 nM |
| ACAUGUAAUGUAGGAUAUUUUACACAUGAGGAUCACCCAUGUGACCAGAGGCUUUACUAUGAGUAAAAGAAGGGUAUGUACAUG [Ex NG2 #60] (Eterna round: R96, puzzle: Exclusion NG 2) | 69.6 nM | 54.2 nM | apparent KD of MS2 coat protein [1]: 33.5 nM |
| GGAAGGCGAGGAUAUACAAUGCCGGAAACGGCAGGCGUGAGACAUGAGGAUCACCCAUGUAGAAGGCGCGGAGA [AK-MS2ROC-r4-exclusion2-15] (Eterna round: R97, puzzle: Exclusion 2) | 101 nM | 105 nM |  |
| AGUCUGCUAGGAUAUACAUGAGGAUCACCCAUGUCUAUCAAAAGACUAUUAACCUGGUGUAGAAGGAGCUUGUA [Lasodiar] (puzzle: Exclusion 3) |  |  | apparent KD of MS2 coat protein [2]: 10.7 nM |
| GUUUGACAUGAGGAUCACCCAUGUAAGGAUAUACGAGUAGCUACUAGGUAGUUAGUAUGUAGAAGGUACGUGUU [EX1 #65] (Eterna round: R97, puzzle: Exclusion 1) | 50.4 nM | 40.3 nM |  |
| UCAAUACGGAAGGAUAUGCCGAAGCAUGCGCAGGCAGAAGGUCUGACAUGAGGAUCACCCAUGUUGGAGAUCAA [Eternabot (L2) Solution 21] (Eterna round: R97, puzzle: Exclusion 6) | 82.1 nM | 19.1 nM |  |
| AGGGAACGAGGAUAUCGAUGGUGGAACAUGAGGAUCACCCAUGUAUGAGAUAGAGUAGGGCGAGAAGGCGUUAAGA [JR_E5_Sub051] (puzzle: Exclusion 5) |  |  | apparent KD of MS2 coat protein [3]: 47.6 nM; apparent KD of MS2 coat protein [2]: 55.6 nM; apparent KD of MS2 coat protein [4]: 84.9 nM |
| GUCACAUGGACAUAGGAUCACAUGAGGAUCACCCAUGUGACUAACAAGCUUUUUGCUCGUCUUAUGUCUAUGUGAAG [Stov1/16-A3] (Eterna round: R97, puzzle: Sensor, turn-off variant 1) | 14.4 nM | 12.4 nM |  |
| AACGUGCAGCUUUGCUGUACGCGUACAUGAGGAUCACCCAUGUAGGAUAUGGUACGCAAAGCGUGCUAGAAGGAUAUGGAGAAA [Mat - Exclusion NG 3 - Mod of JL - D82] (Eterna round: R96, puzzle: Exclusion NG 3) | 14.7 nM | 16.2 nM | apparent KD of MS2 coat protein [1]: 11.5 nM |
| AAGUACCGUCACGAUAGUGAUGGUACAGCAAGCAAAUGUACAUGAGGAUCACCCAUGUCCUCUUUUGCUCGUCUUAU [Sensor 3 - 98] (puzzle: Sensor v3, turn-off variant 2) |  |  | apparent KD of MS2 coat protein [3]: 49.1 nM; apparent KD of MS2 coat protein [2]: 31.1 nM; apparent KD of MS2 coat protein [4]: 53.2 nM |
| UCAAGAAUAGGAUAUACAACAUGCCCGCUUCUUUGCAUCGCACAUGAGGAUCACCCAUGUAGAAGGGUUCUCUA [Exclusion-2-#16] (Eterna round: R97, puzzle: Exclusion 2) | 103 nM | 151 nM |  |
| CCCUUGUGAGGAUAUAGUAGUUGCACAUCGAUAGAGUAACUCUAGAAGGCACAUGAGGAUCACCCAUGUACGAA [Eternabot (L1) Solution 56] (Eterna round: R97, puzzle: Exclusion 4) | 70.2 nM | 119 nM |  |
| GAAAGAGUUCAGGAUAUCAGAGUCCAGCGACACUGAGAAGGGAAAACAUGAGGAUCACCCAUGUGGUCCUAAGC [Eternabot (L2) Solution 80] (Eterna round: R97, puzzle: Exclusion 6) | 348 nM | 105 nM |  |
| CCUUAGUCACAGGAUAUGCUCAUCUAAUGAUGAGCAGAAGGGUGAACAUGAGGAUCACCCAUGUUUAUCAAGGG [Omei Ex6 E3] (Eterna round: R97, puzzle: Exclusion 6) | 300 nM | 274 nM |  |
| UUGAUGUCAUCAGGAUAUAGUAUUUAAGACAUAUCUUCUUUCAAACAUGAGGAUCACCCAUGUCGCUAGAAGGGAUGAAUGAUU [JR_ExcNG2_Sub085] (Eterna round: R96, puzzle: Exclusion NG 2) |  |  | apparent KD of MS2 coat protein [1]: 12.1 nM |
| GCUAGAGCAGGAUAUUCAAAACCUCACAUGAGGAUCACCCAUGUGGCCGAAAGGCCGGGAGGAGAAGGGCUCUAGC [Mat - Exclusion 5 - Eli mod - D84] (puzzle: Exclusion 5) |  |  | apparent KD of MS2 coat protein [3]: 41.6 nM; apparent KD of MS2 coat protein [2]: 15.1 nM; apparent KD of MS2 coat protein [4]: 17.2 nM |
| GAAAAGCGAGGAUAUACUUGCAGUGUACCUCGGGUGAUCUCACUUGAGGAUCACCCAAGUAGAAGGCGCGAGGG [Quletibe] (Eterna round: R97, puzzle: Exclusion 2) | 4.5 nM | 45.2 nM |  |
| CGUGCGUAUGUGAGGAUAUGCUGGUCCUUGGAUCAGCAGAAGGCACAUGAGGAUCACCCAUGUGGUGUCGUACA [salish99_Bmod_Ex4_016] (puzzle: Brourd's mod of Exclusion 4) |  |  | apparent KD of MS2 coat protein [2]: 198 nM |
| CUGUACUGAGGAUAUACAUGAGGAUCACCCAUGUGAUUCAGUGCACGCGUACGUGUACGUAGAAGGCAGUACAG [Mat - Exclusion 3 - Eli Mod - D37] (Eterna round: R97, puzzle: Exclusion 3) | 750 nM | 42.5 nM |  |
| UUAGAUUGAGGAUAUUUGGAUCCGUACAUGAGGAUCACCCAUGUGUGUAGCACAUUCAACGGAGAAGGCGGUUUCU [Eternabot (L1) Solution 73] (Eterna round: R97, puzzle: Exclusion 5) | 143 nM | 256 nM |  |
